Data: patent US20260274936A1

These substances were tested against human neonatal Fc-receptor (FcRn) (human) (UniProt P55899) (assay: FcRn affinity chromatography, anti-VEGF/ANG-2 KiH antibody).

Substance | retention time on FcRn affinity column [min]
bispecific anti-VEGF/ANG-2 antibody (knobs-into-holes), FcRn affecting mutation: none (bispecific antibody) | 51.8
bispecific anti-VEGF/ANG-2 antibody (knobs-into-holes), one chain with I253A (bispecific antibody) | 48.8
bispecific anti-VEGF/ANG-2 antibody (knobs-into-holes), one chain with L251D/L314D/L432D (bispecific antibody) | 46.3
bispecific anti-VEGF/ANG-2 antibody (knobs-into-holes), one chain with H435A (bispecific antibody) | 48.8

More lines, now with the values ahead:

retention time on FcRn affinity column [min] | Substance
46.7 | bispecific anti-VEGF/ANG-2 antibody (knobs-into-holes), one chain with H310A/H433A/Y436A (bispecific antibody)
48.4 | bispecific anti-VEGF/ANG-2 antibody (knobs-into-holes), one chain with H310A (bispecific antibody)
56.2 | bispecific anti-VEGF/ANG-2 antibody (knobs-into-holes), one chain with M252Y/S254T/T256E (bispecific antibody)

These substances were tested against human neonatal Fc-receptor (FcRn) (human) (UniProt P55899) (assay: FcRn affinity chromatography; the table in the text prints 51.8 min for 'none').

Substance | RT [min]
bispecific anti-VEGF/ANG-2 antibody (knobs-into-holes), FcRn affecting mutation: none (bispecific antibody) | 52.8

What follows are substances tested against human neonatal Fc-receptor (FcRn) (human) (UniProt P55899) (assay: FcRn affinity chromatography).

Substance | FcRn-affinity column retention time [min]
molecule with IgG1 Fc-region L234A/L235A/P329G and Y436A (symmetric) (antibody) | 41.3

The substances below were run against human neonatal Fc-receptor (FcRn) (human) (UniProt P55899) (assay: FcRn affinity chromatography, anti-HER2 antibody).

Substance | retention time [min]
anti-HER2 antibody, K288E (symmetrically modified) | 45.2
anti-HER2 antibody, D98E (symmetrically modified) | 46.2

Other lines, results leading:

retention time [min] | Substance
41.4 | anti-HER2 antibody, R255D (symmetrically modified)
45.5 | anti-HER2 antibody, L309H (symmetrically modified)
46.2 | anti-HER2 antibody, K290H (symmetrically modified)
52 | anti-HER2 antibody, N434H (symmetrically modified)
45.6 | anti-HER2 antibody, E258H (symmetrically modified)
